The results in this text go back to article PMC12440816, “Cell cycle regulation has shaped replication origins in budding yeast” (Nature Structural & Molecular Biology, 2025).

In one assay the target is T1, Mcm3 (Saccharomyces cerevisiae, UniProt P24279 1-971).
T1 construct: Mcm3 of S. cerevisiae; Subunit of m5, for the subunit pairs of the SH structure; source: subunit of purified MCM–Cdt1 (previously described methods)
The assay can be described thus: cryo-EM structure; SH and DH on nucleosome-flanked ARS1 (15 nM) loaded by Orc6-4A ORC (40 nM) pre-phosphorylated by CDK, Cdc6 (40 nM), MCM–Cdt1 (80 nM), 2.2 mM ATP, 30 °C, 30 min. The conditions noted are these: both partners purified.

In a further assay the target is T2, Mcm4 (Saccharomyces cerevisiae, UniProt P30665 1-933).
T2 construct: Mcm4 of S. cerevisiae; Subunit of m5, for the subunit pairs of the SH structure; source: subunit of purified MCM–Cdt1 (previously described methods)
T2 sequence: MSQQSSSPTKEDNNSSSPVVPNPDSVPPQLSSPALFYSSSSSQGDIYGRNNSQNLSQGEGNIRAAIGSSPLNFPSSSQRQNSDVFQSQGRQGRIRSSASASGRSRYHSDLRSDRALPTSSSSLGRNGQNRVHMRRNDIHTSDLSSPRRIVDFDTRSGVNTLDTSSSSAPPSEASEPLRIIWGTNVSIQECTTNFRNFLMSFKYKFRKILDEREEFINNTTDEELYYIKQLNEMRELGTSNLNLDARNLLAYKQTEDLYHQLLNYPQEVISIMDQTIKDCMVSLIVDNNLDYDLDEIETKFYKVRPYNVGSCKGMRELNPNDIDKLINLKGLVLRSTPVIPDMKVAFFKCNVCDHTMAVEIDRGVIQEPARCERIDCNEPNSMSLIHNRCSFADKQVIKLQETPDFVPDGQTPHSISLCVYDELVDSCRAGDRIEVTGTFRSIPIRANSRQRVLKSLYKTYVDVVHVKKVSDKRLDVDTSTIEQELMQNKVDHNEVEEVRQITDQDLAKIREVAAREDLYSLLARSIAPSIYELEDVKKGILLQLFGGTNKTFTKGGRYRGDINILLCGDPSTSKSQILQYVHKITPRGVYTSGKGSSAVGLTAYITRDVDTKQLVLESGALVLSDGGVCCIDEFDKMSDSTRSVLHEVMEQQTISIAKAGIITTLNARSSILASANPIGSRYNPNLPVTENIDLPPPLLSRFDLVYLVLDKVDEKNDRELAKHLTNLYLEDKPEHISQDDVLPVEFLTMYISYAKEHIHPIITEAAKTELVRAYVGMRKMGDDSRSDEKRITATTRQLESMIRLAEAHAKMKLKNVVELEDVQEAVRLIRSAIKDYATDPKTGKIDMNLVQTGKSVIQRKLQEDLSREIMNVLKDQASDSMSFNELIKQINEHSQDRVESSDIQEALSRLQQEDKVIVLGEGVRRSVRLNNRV
The description is as above. As to conditions: both partners purified.

T1 sequence (P24279 whole entry): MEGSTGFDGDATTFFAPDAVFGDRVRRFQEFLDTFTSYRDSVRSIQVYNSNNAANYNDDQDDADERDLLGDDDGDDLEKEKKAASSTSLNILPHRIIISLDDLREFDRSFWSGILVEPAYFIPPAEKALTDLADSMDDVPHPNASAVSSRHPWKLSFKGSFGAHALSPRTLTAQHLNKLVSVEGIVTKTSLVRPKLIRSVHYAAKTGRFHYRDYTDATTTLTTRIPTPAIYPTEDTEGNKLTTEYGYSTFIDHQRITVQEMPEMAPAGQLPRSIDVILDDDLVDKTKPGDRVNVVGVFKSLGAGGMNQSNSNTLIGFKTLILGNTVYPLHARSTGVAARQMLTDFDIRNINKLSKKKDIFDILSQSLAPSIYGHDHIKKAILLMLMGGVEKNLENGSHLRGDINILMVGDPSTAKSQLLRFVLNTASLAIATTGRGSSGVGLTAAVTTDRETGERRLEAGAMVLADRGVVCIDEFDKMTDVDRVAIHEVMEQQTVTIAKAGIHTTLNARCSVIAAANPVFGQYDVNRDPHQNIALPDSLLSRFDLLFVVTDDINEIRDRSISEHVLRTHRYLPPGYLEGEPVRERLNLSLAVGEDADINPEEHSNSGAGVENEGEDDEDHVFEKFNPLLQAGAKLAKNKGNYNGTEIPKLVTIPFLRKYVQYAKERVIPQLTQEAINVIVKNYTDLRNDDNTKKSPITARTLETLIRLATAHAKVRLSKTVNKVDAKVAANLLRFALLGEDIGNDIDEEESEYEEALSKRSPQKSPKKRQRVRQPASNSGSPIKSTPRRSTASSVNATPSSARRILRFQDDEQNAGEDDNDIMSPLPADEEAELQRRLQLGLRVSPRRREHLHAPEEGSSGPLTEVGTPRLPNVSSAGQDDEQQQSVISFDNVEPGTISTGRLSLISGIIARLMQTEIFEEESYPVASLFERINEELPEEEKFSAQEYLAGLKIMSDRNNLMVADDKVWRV

B1: Mcm7 (natural protein, Saccharomyces cerevisiae)
chain: MSAALPSIQLPVDYNNLFNEITDFLVTFKQDTLSSDATRNENEDENLDAENIEQHLLEKGPKYMAMLQKVANRELNSVIIDLDDILQYQNEKFLQGTQADDLVSAIQQNANHFTELFCRAIDNNMPLPTKEIDYKDDVLDVILNQRRLRNERMLSDRTNEIRSENLMDTTMDPPSSMNDALREVVEDETELFPPNLTRRYFLYFKPLSQNCARRYRKKAISSKPLSVRQIKGDFLGQLITVRGIITRVSDVKPAVEVIAYTCDQCGYEVFQEVNSRTFTPLSECTSEECSQNQTKGQLFMSTRASKFSAFQECKIQELSQQVPVGHIPRSLNIHVNGTLVRSLSPGDIVDVTGIFLPAPYTGFKALKAGLLTETYLEAQFVRQHKKKFASFSLTSDVEERVMELITSGDVYNRLAKSIAPEIYGNLDVKKALLLLLVGGVDKRVGDGMKIRGDINVCLMGDPGVAKSQLLKAICKISPRGVYTTGKGSSGVGLTAAVMKDPVTDEMILEGGALVLADNGICCIDEFDKMDESDRTAIHEVMEQQTISISKAGINTTLNARTSILAAANPLYGRYNPRLSPLDNINLPAALLSRFDILFLMLDIPSRDDDEKLAEHVTYVHMHNKQPDLDFTPVEPSKMREYIAYAKTKRPVMSEAVNDYVVQAYIRLRQDSKREMDSKFSFGQATPRTLLGIIRLSQALAKLRLADMVDIDDVEEALRLVRVSKESLYQETNKSKEDESPTTKIFTIIKKMLQETGKNTLSYENIVKTVRLRGFTMLQLSNCIQEYSYLNVWHLINEGNTLKFVDDGTMDTDQEDSLVSTPKLAPQTTASANVSAQDSDIDLQDA
notes: Mcm7 of S. cerevisiae; Subunit of m5, for the subunit pairs of the SH structure; source: subunit of purified MCM–Cdt1 (previously described methods)
For B1, the binding result in the assay with Mcm3 and with Mcm4 was “binds” throughout.
